From publication PMC10680704

Target: IGF2R ectodomain, recombinant, AlexaFlour488-labeled (UniProt P11717)

“mCherry GELYTAC (original, wild-type IGF2), recombinant” was tested. Which EC50 of mCherry uptake by K562 cells did it give?
The EC50 of mCherry uptake by K562 cells was 101 nM.

How did the EC50 of mCherry uptake by K562 cells turn out when “G2 mCherry GELYTAC (IGF2 E6R, F19L, S39P), recombinant” was run?
The EC50 of mCherry uptake by K562 cells was 16 nM.
